Here are results for eleven molecules from patent US20220025056A1 (INNATE PHARMA, published 2022).

The target in assay [1] is T1, human ILT6 (LILRA3) on CHO cells (human, UniProt Q8N6C8 24-434).
T1 construct: also called CHO ILT6 cell line; human ILT-6 polypeptide
Put plainly: flow cytometry, CHO transfectants. A general note: In flow cytometry, cells or beads pass a laser one at a time.

For assay [2], the target named is T2, ILT2 mutant 2 (human, UniProt Q8NHL6 24-650).
T2 construct: transfected in HEK293T cells; also called M2
T2 sequence (Q8NHL6 other isoform, or with tags, fused parts or gaps mutant): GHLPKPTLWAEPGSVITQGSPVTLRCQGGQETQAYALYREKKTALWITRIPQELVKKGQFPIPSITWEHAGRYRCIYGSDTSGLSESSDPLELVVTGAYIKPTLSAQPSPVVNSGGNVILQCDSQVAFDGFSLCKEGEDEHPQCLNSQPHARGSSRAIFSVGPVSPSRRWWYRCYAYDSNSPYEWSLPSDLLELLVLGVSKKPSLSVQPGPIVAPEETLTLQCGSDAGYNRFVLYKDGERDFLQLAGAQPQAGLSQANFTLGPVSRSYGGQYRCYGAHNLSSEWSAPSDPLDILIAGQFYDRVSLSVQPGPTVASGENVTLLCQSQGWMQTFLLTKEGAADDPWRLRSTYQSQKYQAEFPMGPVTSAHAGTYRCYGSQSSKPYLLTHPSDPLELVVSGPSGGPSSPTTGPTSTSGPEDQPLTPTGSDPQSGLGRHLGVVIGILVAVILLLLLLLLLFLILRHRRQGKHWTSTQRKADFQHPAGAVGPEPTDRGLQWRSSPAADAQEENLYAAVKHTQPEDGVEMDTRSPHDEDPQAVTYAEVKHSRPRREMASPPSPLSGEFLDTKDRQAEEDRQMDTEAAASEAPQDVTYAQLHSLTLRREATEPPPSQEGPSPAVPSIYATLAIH
Put plainly: flow cytometry, ILT2 point mutants.

The target of assay [3] is T3, anchored ILT2 D2 domain protein (human).
T3 construct: on CHO cells; the entry includes leader remnant, V5 tag and CD24 GPI anchor signal
T3 sequence (chain, as listed by the source limits assumed): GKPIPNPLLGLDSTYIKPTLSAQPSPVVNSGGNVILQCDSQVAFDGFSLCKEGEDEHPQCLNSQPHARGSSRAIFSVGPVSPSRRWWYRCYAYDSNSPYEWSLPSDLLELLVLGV
Put plainly: flow cytometry, CHO cells with anchored ILT2 domain proteins.

Assay [4] addresses T4, anchored ILT2 D4 domain protein (human, UniProt Q8NHL6 322-650).
T4 construct: on CHO cells; the entry includes leader remnant, V5 tag, and the ILT2 transmembrane and cytoplasmic parts
Described as above.

Assay [5] has as its target T5, human ILT1 (LILRA2) on CHO cells (human, UniProt Q8N149 24-475).
T5 construct: also called CHO ILT1 cell line
Put plainly: flow cytometry, CHO transfectants.

For assay [6], the target named is T6, human ILT3 (LILRB4) on CHO cells (human, UniProt Q8NHJ6 24-443).
T6 construct: also called CHO ILT3 cell line
T6 sequence (Q8NHJ6 other isoform, or with tags, fused parts or gaps): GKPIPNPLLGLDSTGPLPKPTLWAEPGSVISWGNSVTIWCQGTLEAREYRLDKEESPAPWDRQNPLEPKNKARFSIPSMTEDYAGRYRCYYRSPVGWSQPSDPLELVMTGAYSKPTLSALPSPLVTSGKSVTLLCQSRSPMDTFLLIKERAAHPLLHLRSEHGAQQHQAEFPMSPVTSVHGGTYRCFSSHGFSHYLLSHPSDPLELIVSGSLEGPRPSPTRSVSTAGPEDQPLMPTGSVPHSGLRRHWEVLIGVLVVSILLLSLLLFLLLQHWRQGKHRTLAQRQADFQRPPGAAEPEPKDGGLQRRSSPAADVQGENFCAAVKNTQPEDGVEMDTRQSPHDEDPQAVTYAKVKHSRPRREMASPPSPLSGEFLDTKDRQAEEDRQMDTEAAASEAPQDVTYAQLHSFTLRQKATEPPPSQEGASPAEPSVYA
Nature of the assay: flow cytometry, CHO transfectants.

Assay [7] deals with T7, human ILT4 (LILRB2) on CHO cells (human, UniProt Q8N423 23-597).
T7 construct: also called CHO ILT4 cell line
T7 sequence (Q8N423 other isoform, or with tags, fused parts or gaps): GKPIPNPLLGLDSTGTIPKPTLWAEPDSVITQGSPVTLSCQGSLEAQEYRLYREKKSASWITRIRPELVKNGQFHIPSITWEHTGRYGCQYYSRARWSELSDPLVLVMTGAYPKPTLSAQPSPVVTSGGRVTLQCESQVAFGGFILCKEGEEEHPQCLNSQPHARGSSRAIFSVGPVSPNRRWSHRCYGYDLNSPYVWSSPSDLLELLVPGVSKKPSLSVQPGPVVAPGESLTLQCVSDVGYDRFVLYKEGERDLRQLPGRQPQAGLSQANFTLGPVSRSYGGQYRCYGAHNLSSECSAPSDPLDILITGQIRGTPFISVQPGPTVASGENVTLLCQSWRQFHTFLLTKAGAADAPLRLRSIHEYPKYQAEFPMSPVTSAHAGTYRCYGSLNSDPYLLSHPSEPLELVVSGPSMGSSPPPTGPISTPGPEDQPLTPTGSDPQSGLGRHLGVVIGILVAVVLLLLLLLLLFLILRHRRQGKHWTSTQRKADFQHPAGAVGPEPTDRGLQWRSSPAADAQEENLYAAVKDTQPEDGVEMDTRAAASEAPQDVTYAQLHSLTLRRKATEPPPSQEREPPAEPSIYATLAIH
Nature of the assay: flow cytometry, CHO transfectants.

The target of assay [8] is T8, human ILT5 (LILRB3) on CHO cells (human, UniProt O75022 24-626).
T8 construct: also called CHO ILT5 cell line
T8 sequence (O75022 other isoform, or with tags, fused parts or gaps): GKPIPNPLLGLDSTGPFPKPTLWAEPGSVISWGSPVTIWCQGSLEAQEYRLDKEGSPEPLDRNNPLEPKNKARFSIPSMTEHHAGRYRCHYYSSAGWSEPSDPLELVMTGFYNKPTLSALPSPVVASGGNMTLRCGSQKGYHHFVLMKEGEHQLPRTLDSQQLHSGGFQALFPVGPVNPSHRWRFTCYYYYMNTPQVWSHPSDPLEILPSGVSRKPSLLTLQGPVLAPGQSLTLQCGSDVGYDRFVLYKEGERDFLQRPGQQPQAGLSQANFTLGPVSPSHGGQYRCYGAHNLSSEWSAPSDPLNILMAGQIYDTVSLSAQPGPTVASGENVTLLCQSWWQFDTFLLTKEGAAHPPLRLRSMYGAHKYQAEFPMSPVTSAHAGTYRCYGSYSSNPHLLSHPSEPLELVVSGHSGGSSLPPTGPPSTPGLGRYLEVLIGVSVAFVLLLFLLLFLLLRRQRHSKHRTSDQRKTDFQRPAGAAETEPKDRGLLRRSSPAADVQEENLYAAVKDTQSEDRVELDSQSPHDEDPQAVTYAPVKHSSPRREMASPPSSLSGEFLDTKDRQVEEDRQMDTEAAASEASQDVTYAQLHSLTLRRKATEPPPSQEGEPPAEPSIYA
Put plainly: flow cytometry, CHO transfectants.

Assay [9] concerns the target T9, human ILT7 (LILRA4) on CHO cells (human, UniProt P59901 28-494).
T9 construct: also called CHO ILT7 cell line
Nature of the assay: flow cytometry, CHO transfectants.

Assay [10] has as its target T10, human ILT8 (LILRA6) on CHO cells (human, UniProt Q6PI73 24-477).
T10 construct: also called CHO ILT8 cell line
Put plainly: flow cytometry, CHO transfectants.

The target in assay [11] is T11, human ILT2 (LILRB1) expressed at the surface of transfected cells (human, UniProt Q8NHL6 24-650).
T11 construct: also called CHO-ILT2; CHO ILT2 cell line
Nature of the assay: flow cytometry, CHO-ILT2 cells. The protocol:
Cells were incubated with various concentrations of unlabeled anti-ILT2 antibodies from 30 μg/ml to 5×10-⁴ μg/ml, for 30 minutes at 4° C. After washes with staining buffer, cells were incubated for 30 min at 4° C. with Goat anti-human H+L AF488 secondary antibody (Jackson Immunoresearch #109-546-088) or Goat anti-mouse H+L AF488 secondary antibody for commercially available antibodies (Jackson Immuoresearch #115-545-146). Fluorescence was measured on an Accury C6 flow cytometer equipped with an HTFC plate loader.

Assay [12] concerns the target T12, human ILT2 on primary NK cells (human, UniProt Q8NHL6 24-650).
T12 construct: whole, on cells
Nature of the assay: flow cytometry, primary NK cells.

In assay [13] the target is T13, anchored ILT2 D1-D2 domain protein (human, UniProt Q8NHL6 24-222).
T13 construct: on CHO cells; the entry includes leader remnant, V5 tag and CD24 GPI anchor signal
Put plainly: flow cytometry, CHO cells with anchored ILT2 domain proteins.

For assay [14], the target named is T14, anchored ILT2 D2-D3 domain protein (human, UniProt Q8NHL6 122-321).
T14 construct: on CHO cells; the entry includes leader remnant, V5 tag and CD24 GPI anchor signal
T14 sequence (Q8NHL6 other isoform, or with tags, fused parts or gaps limits assumed): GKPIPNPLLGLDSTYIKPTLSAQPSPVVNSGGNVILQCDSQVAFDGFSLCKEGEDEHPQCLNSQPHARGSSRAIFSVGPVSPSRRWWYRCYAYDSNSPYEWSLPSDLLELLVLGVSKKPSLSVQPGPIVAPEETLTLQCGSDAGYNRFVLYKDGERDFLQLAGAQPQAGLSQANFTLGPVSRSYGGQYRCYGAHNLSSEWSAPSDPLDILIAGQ
Described as above.

Assay [15] has as its target T15, anchored ILT2 D1-D2-D3 domain protein (human, UniProt Q8NHL6 24-321).
T15 construct: on CHO cells; the entry includes leader remnant, V5 tag and CD24 GPI anchor signal
The assay is described as above.

In assay [16] the target is T16, ILT-2_6xHis recombinant protein (human, UniProt Q8NHL6 24-458).
T16 construct: monomers purified by SEC; also called recombinant 6xHIS tagged ILT2; recombinant human ILT2 proteins
T16 sequence (Q8NHL6 other isoform, or with tags, fused parts or gaps limits assumed): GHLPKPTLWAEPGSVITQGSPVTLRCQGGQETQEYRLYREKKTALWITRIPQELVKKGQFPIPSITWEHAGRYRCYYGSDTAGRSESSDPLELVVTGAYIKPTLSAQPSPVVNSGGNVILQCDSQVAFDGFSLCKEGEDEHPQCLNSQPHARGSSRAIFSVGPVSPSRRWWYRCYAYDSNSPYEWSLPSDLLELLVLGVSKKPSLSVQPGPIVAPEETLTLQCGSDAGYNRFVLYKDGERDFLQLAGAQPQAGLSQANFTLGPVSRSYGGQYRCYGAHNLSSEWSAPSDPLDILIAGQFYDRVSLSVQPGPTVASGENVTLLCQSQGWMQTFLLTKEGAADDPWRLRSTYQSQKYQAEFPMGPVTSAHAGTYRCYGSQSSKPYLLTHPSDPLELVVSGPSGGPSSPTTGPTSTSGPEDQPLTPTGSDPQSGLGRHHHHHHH
Nature of the assay: SPR, antibody captured on Protein-A, soluble ILT2 analyte. The protocol: Measurements were performed on a Biacore T200 apparatus (Biacore GE Healthcare) at 25° C. In all Biacore experiments HBS-EP+(Biacore GE Healthcare) and NaOH 10 mM served as running buffer and regeneration buffer respectively. Sensorgrams were analyzed with Biacore T100 Evaluation software. Protein-A was purchased from (GE Healthcare). Human ILT2 recombinant proteins were cloned, produced and purified at Innate Pharma. Protein-A proteins were immobilized covalently to carboxyl groups in the dextran layer on a Sensor Chip CM5. The chip surface was activated with EDC/NHS (N-ethyl-N′-(3-dimethylaminopropyl) carbodiimidehydrochloride and N-hydroxysuccinimide (Biacore GE Healthcare)). Protein-A was diluted to 10 μg/ml in coupling buffer (10 mM acetate, pH 5.6) and injected until the appropriate immobilization level was reached (i.e. 600 RU). Deactivation of the remaining activated groups was performed using 100 mM ethanolamine pH 8 (Biacore GE Healthcare). […] For blank subtraction, cycles were performed again replacing ILT2 proteins with running buffer. The monovalent affinity analysis was conducted following a regular Capture-Kinetic protocol as recommended by the manufacturer (Biacore GE Healthcare kinetic wizard). Seven serial dilutions of human ILT2 proteins, ranging from 1.95 nM to 250 nM were sequentially injected over the captured antibodies and allowed to dissociate for 10 min before regeneration. The entire sensorgram sets were fitted using the 1:1 kinetic binding model or two state reaction model, as a function of the profile of the curves.

The target in assay [17] is T17, ILT2 mutant 4-1 (human, UniProt Q8NHL6 24-650).
T17 construct: transfected in HEK293T cells
Nature of the assay: flow cytometry titration on HEK293T cells transfected with ILT2 mutant 4-1.

Assay [18] addresses T18, ILT2 mutant 4-2 (human, UniProt Q8NHL6 24-650).
T18 construct: transfected in HEK293T cells
Nature of the assay: flow cytometry titration on HEK293T cells transfected with ILT2 mutant 4-2.

Assay [19] addresses T19, Mutant D4-4.
T19 construct: also called ILT2 mutant 4-4; mutant 4-4
Nature of the assay: flow cytometry titration on HEK293T cells transfected with ILT2 mutant 4-4.

The target in assay [20] is T20, Mutant D4-1B.
T20 construct: read as S304F; also called ILT2 mutant 4-1b; mutant 4-1b
Put plainly: flow cytometry titration on HEK293T cells transfected with ILT2 mutant 4-1b.

In assay [21] the target is T21, anchored ILT2 D1 domain protein (human).
T21 construct: on CHO cells; the entry includes leader remnant, V5 tag and CD24 GPI anchor signal
Put plainly: flow cytometry on CHO cells expressing the anchored ILT2 D1 domain protein (SEQ ID NO: 46); stacked histograms, axis without numbers.

In assay [22] the target is T22, anchored ILT2 D3 domain protein (human).
T22 construct: on CHO cells; the entry includes leader remnant, V5 tag and CD24 GPI anchor signal
Nature of the assay: flow cytometry on CHO cells expressing the anchored ILT2 D3 domain protein (SEQ ID NO: 48); stacked histograms, axis without numbers, no control histogram.

One may read the EC50 as the concentration that produces a half-maximal response. High values mean lower potency in that assay, low ones higher potency in that assay. The koff is a measure of how fast the partners let go of each other. As a reminder, the EC50 (read off the curve) is the concentration that produces a half-maximal response.

Residue numbers refer to the chain shown, from its start.

T1 sequence (Q8N6C8 other isoform, or with tags, fused parts or gaps): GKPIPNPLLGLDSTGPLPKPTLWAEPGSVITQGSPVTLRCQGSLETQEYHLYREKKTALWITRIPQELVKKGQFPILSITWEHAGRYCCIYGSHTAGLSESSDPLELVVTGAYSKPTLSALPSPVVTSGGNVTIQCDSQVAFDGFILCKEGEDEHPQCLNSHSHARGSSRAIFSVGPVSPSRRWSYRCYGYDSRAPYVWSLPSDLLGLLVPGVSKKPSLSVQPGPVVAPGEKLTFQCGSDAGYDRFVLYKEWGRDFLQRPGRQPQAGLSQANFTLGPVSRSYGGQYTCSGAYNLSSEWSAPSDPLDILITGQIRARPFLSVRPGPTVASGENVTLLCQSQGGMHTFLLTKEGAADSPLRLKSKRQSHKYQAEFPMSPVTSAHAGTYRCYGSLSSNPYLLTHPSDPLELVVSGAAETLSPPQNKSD
T4 sequence (Q8NHL6 other isoform, or with tags, fused parts or gaps limits assumed): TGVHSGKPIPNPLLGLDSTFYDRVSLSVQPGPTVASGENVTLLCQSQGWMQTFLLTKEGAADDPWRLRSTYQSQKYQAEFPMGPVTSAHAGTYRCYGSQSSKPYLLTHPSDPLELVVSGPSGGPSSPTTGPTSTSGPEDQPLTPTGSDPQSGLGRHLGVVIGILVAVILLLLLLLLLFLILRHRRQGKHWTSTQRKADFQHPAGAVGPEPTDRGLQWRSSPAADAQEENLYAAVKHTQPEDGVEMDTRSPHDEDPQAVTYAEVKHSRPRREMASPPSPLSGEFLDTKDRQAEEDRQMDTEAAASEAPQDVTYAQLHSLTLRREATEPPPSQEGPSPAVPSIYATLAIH
T12 sequence (Q8NHL6 24-650): as the sequence (Q8NHL6 other isoform, or with tags, fused parts or gaps mutant) above, with A34E, A36R, I76Y, S82A, L84R counted along it
T10 sequence (Q6PI73 other isoform, or with tags, fused parts or gaps): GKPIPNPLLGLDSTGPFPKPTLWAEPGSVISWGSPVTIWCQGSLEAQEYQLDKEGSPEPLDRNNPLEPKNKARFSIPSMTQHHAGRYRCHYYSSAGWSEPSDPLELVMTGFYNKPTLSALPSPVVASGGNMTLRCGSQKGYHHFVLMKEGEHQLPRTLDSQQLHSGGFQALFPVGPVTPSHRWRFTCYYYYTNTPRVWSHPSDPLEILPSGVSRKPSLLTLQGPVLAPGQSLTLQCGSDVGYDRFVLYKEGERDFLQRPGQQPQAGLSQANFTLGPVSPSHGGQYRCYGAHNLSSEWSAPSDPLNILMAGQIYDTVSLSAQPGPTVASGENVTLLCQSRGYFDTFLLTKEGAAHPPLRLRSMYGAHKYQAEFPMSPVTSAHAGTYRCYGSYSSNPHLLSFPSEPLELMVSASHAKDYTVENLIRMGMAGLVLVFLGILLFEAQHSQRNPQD

B1: 3E5 (antibody, human IgG1, V domains shown)
VH: DVQLQESGPELVKPGASVKISCKSSGYSFTNFYIHWVKQRPGQGLDWIGWIFPGTGETNFNEKFKVKAALTADTSSSTVYMQLSTLTSEDSAVYFCARSWNYDARWGYWGQGTSITVSS
VL: ENVLTQSPASLAVSLGQRATISCRASESIDSFGISFMHWYQQKPGQPPKLLIYRASNLESGIPARFSGSGSGPDFSLTIDPVEADDVATYYCQQSNEAPFTFGSGTKLEIK
For the molecule B1, the binding result in assay [1] and in [2] was “no binding” throughout.

B2: 1A9 (antibody, human IgG1, V domains shown)
VH: EVKLQQSGPDLVKPGASVKISCKASGYSFTNFYIHWVKQRPGQGLEWIGWIFPGNGETNYSEKFKGKATLTADTSSSTAYMQFNSLTYEDSAVYFCARTWNYDARWGYWGQGTTLTVSS
VL: DVVMTQTPASLAVSLGQRATISCRASDGIDSYGISFMRWYQQKPGQPPTLLIYRASTLESGIPARFSGSGSRTNFTLTINPVEADDVATYYCQQTNEDPFTFGSGTKLEIK
B2: the binding result in assay [3] and in [4] was “no binding” in each case.

B3: 1E4C (antibody, human IgG1, V domains shown)
VH: QRELQQSGPELVKPGASVNISCKASGYSFTNHYINWVKQRPGQGLEWIGWIFPGNGDTNYNEKFKGKATLTADTSSSTAYMQLSSLTSEDSAVYFCARTWNYDARWGYWGQGTTVTVSS
VL: B2 VL with S10F, D27E, G28S, R38H, T49K, L50V, A55T, T57N, N74D, T95S
Consider B3, for which the binding result in assay [3] and in [4] was “no binding” in each case.

B4: 27C10 (antibody, human IgG1, V domains shown)
VH: EVQLQESGPGLVKPSQSLSLTCSVTGYSITSGYYWNWIRQFPENKLEWMGYIRYDGSNNYNPSLNNRISITRDASKNQFFLKLNSVTTEDTATYYCARGWLLWFYAVDYWGQGTSVTVSS
VL: DVVMTQTPLSLPVSLGDQASISCRSSQSIVHTNGNTYLEWYLQKSGQSPKLLIYKVSNRLSGVPDRFSGSGSGTDFTLKISRVEAEDLGIYYCFQGSHVPWTFGGGTKLEIK
As to B4, the binding result in assay [5], in [6], in assay [7], in assay [8], in assay [1] and in assay [9] was “no binding” each time. Besides, the binding result in [10] is listed as “no binding”; in [3] it was “no binding”; in assay [13] it was “no binding”; in [14] it was “no binding”; in [15], “no binding”; in [18], “binds”. For the same molecule, the binding result is recorded as “binds” in assay [19], “binds” in assay [20], “no binding” in assay [21] and “no binding” in assay [22]. In addition, the EC50 came to 0.25 µg/mL in [11] and 0.33 µg/mL in assay [12]. For the same molecule, the koff in [16] came out at 0.0003 s⁻¹. Besides, in assay [17], the “EC50 (read off the curve)” value was around 0.4 µg/mL.

B5: 2E11 (antibody, human IgG1, V domains shown)
VH: QVQLKESGPELVKPGASVKISCKTSGYSFTNYYIHWVKQRPGQGLEWIGWIFPGSGDTNYNEKFKGKATLTADTSSNTASMHLSSLTSEDSAVYFCARTWNYDARWGYWGQGTTLTVSS
VL: DIVMTQSPASLAVSLGQRATISCRVSESIDSYGISFMHWYQQKSGQPPKVLIYRASTLESGIPARFSGSGSRTDFTLTINPVEADDVATYYCQQSNEDPFTFGSGTKLEIK
Regarding B5, the binding result in [1] and in assay [2] was “no binding” throughout.

B6: 4C11B (antibody, human IgG1, V domains shown)
VH: B5 VH with T24A, D57E, N61S, K67E, T69I, S80Y, H82Q, T99S
VL: B5 VL with D1Q, M4L, T5S, A9V, L15P, V25A, Q41K, S44P, V50L, T57N
On to B6, for which the binding result in assay [1] and in assay [2] was “no binding” throughout.

B7: 4E3B (antibody, human IgG1, V domains shown)
VH: EVHLQQSGPELVKPGASVKISCKASGYSFTNYYIQWVKQRPGQGLEWIGWIFPGSGETNYNENFRAKATLSADTSSTTAYMQLSSLTSEDSAVYFCARTWNYDARWGYWGQGTTVTVSS
VL: B5 VL with V3L, M4L, V25P, S28N, Y40C, S44P, V50L, T57N, A64V
With B7, the binding result in assay [1] and in [2] was “no binding” in each case.

B8: 4H3 (antibody, human IgG1, V domains shown)
VH: B5 VH with S28I, N77S, H82Q, L115V
VL: B5 VL with V3L, M4L
For the molecule B8, the binding result in assay [1] and in assay [2] was “no binding” throughout.

B9: 3A7A (antibody, human IgG1, V domains shown)
VH: QVQLKESGPELVKPGTSVKISCKASGYNFRNYYIQWVKQRPGQGLEWIGWIFPGNNETNYNEKFKGKATLSADTSSTTAYMQLSSLTSEDSAVYFCARSWNYDARWGYWGQGTTVTVSS
VL: DVVMTQTPASLAVSLGQRATISCRASEIIDNYGISFIHWYQQKPGQPPKLLIYRASNLESGIPARFSGSGSRTDSTLTINPVGADDVATYYCQQSNEDPFTFGSGTKLELK
In the case of B9, the binding result in [3] and in assay [4] was “no binding” each time.

B10: 2E2C (antibody, human IgG1, V domains shown)
VH: B7 VH with V2F, H3Q, I34M, T58S, N63K, R65K, A66G, V115L
VL: B5 VL with R24I, V25P, S44P, V50L, T57N
Turning to B10, the binding result in assay [1] and in assay [2] was “no binding” each time.

B11: 2E2B (antibody, human IgG1, V domains shown)
VH: B7 VH with E1D, H3Q, Q5V, Q6E, I34M, S55G, T58S, N63K, R65K, A66G
VL: B5 VL with M4L, R24I, V25P, S44P, V50L, T57N
For B11, the binding result in [1] and in assay [2] was “no binding” throughout.
